Measurements from patent publication US20230028476A1 (EVOTEC INTERNATIONAL, published 2023).
Residue numbers refer to the chain shown, from its start. Read-outs that look alike come from different tables or passages of the source. Blank lines part the entries; values can stand above or below the binder they belong to.

How the values were obtained:
Assay in all cases: cell-based or functional assay
human CD40 [1] = target: T1, human CD40 (human, UniProt P25942 21-277)
[2] = target: human IFN receptor on HEK-Blue IFN-γ cells (human)
[3] = target: human IFN receptor on HEK-Blue IFN-γ cells (human); remark: listed apart in the source
[4] = target: human IFN receptor on HEK-Blue IFN-λ cells (human)
human CD40 [5] = target: T1, human CD40; remark: listed apart in the source
human CD40 [6] = target: T1, human CD40; remark: listed apart in the source
[7] = target: human IFN receptor on HEK-Blue IFN-α/β cells (human)

T1 sequence (P25942 21-277): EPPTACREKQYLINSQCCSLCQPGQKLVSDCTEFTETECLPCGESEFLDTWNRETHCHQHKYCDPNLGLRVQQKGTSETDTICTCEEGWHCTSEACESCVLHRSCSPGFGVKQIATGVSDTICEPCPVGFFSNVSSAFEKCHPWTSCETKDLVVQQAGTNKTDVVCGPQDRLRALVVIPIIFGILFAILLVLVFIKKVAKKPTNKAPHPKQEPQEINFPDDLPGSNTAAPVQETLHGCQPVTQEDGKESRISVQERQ

CD40 EC50 (HEK-Blue CD40L reporter cells) (human CD40 [1]): 50.8 ng/mL | IFNγ EC50 (HEK-Blue IFNγ reporter cells) [2]: < 0.001 ng/mL | IFNγ activity EC50 (HEK-Blue IFNγ reporter cells) [3]: < 0.01 ng/mL
B2: IFA43 (antibody, human IgG2, kappa)
heavy: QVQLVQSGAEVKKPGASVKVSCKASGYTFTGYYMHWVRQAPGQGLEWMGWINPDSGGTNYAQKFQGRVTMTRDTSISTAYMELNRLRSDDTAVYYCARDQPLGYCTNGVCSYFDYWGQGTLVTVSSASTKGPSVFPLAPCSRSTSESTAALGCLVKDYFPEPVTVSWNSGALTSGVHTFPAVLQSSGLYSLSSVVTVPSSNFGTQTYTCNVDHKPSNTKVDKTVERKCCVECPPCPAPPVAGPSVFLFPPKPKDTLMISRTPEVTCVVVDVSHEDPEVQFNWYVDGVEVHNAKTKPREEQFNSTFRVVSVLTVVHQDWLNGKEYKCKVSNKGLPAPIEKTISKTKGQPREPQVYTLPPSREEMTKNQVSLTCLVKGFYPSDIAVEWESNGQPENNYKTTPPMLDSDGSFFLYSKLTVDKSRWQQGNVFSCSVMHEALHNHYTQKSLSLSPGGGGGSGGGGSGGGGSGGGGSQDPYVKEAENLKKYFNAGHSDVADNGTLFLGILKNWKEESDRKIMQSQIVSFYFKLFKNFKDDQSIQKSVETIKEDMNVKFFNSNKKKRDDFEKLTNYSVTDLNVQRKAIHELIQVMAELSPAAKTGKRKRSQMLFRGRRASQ
light: DIQMTQSPSSVSASVGDRVTITCRASQGIYSWLAWYQQKPGKAPNLLIYTASTLQSGVPSRFSGSGSGTDFTLTISSLQPEDFATYYCQQANIFPLTFGGGTKVEIKRTVAAPSVFIFPPSDEQLKSGTASVVCLLNNFYPREAKVQWKVDNALQSGNSQESVTEQDSKDSTYSLSSTLTLSKADYEKHKVYACEVTHQGLSSPVTKSFNRGEC

CD40 EC50 (HEK-Blue CD40L reporter cells) (human CD40 [1]): 25.8 ng/mL | IFNλ EC50 (HEK-Blue IFNλ reporter cells) [4]: < 0.001 ng/mL
B3: IFA45 (antibody, human IgG2, kappa)
heavy: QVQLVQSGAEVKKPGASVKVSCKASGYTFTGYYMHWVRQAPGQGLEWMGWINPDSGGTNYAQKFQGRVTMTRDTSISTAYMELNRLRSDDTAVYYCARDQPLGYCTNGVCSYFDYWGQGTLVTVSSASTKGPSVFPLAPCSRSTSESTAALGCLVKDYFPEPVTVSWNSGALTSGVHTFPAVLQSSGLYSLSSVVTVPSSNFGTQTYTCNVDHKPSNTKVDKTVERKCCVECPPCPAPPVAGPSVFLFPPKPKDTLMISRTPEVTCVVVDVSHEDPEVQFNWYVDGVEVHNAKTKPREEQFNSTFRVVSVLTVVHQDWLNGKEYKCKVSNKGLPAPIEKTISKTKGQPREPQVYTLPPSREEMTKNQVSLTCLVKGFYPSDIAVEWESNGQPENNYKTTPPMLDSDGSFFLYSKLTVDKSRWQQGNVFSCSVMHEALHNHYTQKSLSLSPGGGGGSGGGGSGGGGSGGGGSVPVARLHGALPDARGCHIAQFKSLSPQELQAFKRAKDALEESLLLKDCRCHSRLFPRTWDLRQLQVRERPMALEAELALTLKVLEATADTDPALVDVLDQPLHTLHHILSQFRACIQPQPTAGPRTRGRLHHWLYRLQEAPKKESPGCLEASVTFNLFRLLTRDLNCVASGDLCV
light: B2 light

CD40 EC50 (HEK-Blue CD40L reporter cells) (human CD40 [1]): 41.4 ng/mL | IFNλ EC50 (HEK-Blue IFNλ reporter cells) [4]: 0.153 ng/mL
B5: IFA44 (antibody, human IgG2, kappa)
light: DIQMTQSPSSVSASVGDRVTITCRASQGIYSWLAWYQQKPGKAPNLLIYTASTLQSGVPSRFSGSGSGTDFTLTISSLQPEDFATYYCQQANIFPLTFGGGTKVEIKRTVAAPSVFIFPPSDEQLKSGTASVVCLLNNFYPREAKVQWKVDNALQSGNSQESVTEQDSKDSTYSLSSTLTLSKADYEKHKVYACEVTHQGLSSPVTKSFNRGECGGGGSGGGGSGGGGSGGGGSVPVARLHGALPDARGCHIAQFKSLSPQELQAFKRAKDALEESLLLKDCRCHSRLFPRTWDLRQLQVRERPMALEAELALTLKVLEATADTDPALVDVLDQPLHTLHHILSQFRACIQPQPTAGPRTRGRLHHWLYRLQEAPKKESPGCLEASVTFNLFRLLTRDLNCVASGDLCV
heavy: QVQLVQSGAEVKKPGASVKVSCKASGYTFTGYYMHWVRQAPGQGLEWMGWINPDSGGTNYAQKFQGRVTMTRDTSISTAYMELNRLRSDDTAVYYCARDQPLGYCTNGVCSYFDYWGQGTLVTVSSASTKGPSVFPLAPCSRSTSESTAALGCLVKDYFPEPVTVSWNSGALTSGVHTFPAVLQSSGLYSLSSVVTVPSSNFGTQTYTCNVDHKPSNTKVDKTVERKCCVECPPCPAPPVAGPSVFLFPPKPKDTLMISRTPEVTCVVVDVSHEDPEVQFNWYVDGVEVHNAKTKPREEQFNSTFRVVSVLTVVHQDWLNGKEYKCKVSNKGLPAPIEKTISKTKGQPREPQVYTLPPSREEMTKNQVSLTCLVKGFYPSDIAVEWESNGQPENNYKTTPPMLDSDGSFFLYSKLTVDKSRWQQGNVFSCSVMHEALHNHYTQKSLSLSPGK

The remaining lines, values behind:

B1: IFA42 (antibody, human IgG2, kappa)
light: DIQMTQSPSSVSASVGDRVTITCRASQGIYSWLAWYQQKPGKAPNLLIYTASTLQSGVPSRFSGSGSGTDFTLTISSLQPEDFATYYCQQANIFPLTFGGGTKVEIKRTVAAPSVFIFPPSDEQLKSGTASVVCLLNNFYPREAKVQWKVDNALQSGNSQESVTEQDSKDSTYSLSSTLTLSKADYEKHKVYACEVTHQGLSSPVTKSFNRGECGGGGSGGGGSGGGGSGGGGSQDPYVKEAENLKKYFNAGHSDVADNGTLFLGILKNWKEESDRKIMQSQIVSFYFKLFKNFKDDQSIQKSVETIKEDMNVKFFNSNKKKRDDFEKLTNYSVTDLNVQRKAIHELIQVMAELSPAAKTGKRKRSQMLFRGRRASQ
heavy: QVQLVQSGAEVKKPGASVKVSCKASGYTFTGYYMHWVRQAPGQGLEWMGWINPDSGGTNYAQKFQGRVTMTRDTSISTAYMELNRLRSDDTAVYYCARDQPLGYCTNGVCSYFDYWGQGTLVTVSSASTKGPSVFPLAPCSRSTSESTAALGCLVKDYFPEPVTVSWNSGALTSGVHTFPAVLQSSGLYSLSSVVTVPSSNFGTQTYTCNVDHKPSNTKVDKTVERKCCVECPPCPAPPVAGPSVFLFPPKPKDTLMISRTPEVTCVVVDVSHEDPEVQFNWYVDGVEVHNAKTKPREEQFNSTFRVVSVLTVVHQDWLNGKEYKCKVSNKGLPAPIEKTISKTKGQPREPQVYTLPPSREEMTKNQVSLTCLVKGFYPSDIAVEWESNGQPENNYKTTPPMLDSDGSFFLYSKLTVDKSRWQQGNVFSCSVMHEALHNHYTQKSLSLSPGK
CD40 EC50 (HEK-Blue CD40L reporter cells) (human CD40 [1]): 65.6 ng/mL | IFNγ EC50 (HEK-Blue IFNγ reporter cells) [2]: 15.4 ng/mL

B4: agonistic anti-CD40 antibody CP870,893 (antibody, human IgG2, kappa)
heavy: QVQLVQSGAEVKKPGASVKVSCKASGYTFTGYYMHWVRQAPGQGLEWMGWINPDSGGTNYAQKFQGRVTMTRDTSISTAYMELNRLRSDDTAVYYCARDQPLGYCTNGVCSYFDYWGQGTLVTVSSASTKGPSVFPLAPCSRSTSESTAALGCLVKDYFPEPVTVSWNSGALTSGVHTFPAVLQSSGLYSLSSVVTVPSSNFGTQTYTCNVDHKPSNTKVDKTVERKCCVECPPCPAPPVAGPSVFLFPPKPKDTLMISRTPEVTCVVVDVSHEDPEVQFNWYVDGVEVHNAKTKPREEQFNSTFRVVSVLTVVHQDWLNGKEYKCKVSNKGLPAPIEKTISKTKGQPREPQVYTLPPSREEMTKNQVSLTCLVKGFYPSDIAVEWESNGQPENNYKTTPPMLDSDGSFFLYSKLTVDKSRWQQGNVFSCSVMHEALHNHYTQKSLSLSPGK
light: B2 light
EC50, agonistic CD40 activity in the experiment of FIG. 3 (HEK-Blue CD40L reporter cells) (human CD40 [5]): 57 ng/mL | EC50, potency on CD40 pathway (HEK-Blue CD40L reporter cells) (human CD40 [5]): 30 to 80 ng/mL | mean EC50, agonistic CD40 activity (HEK-Blue CD40L reporter cells) (human CD40 [5]): 48 ng/mL

B6: anti-CD40 antibody 3G5 (Celldex) (antibody, human IgG2, kappa)
heavy: QVQLVESGGGVVQPGKSLRLSCAASGFTFSSNGIHWVRQAPGKGLEWVAVIWSDGSNKFYADSVKGRFTISRDNSKNTLYLQMNSLRAEDTAVYYCARASGSGSYYNFFDYWGQGTLVTVSSASTKGPSVFPLAPCSRSTSESTAALGCLVKDYFPEPVTVSWNSGALTSGVHTFPAVLQSSGLYSLSSVVTVPSSNFGTQTYTCNVDHKPSNTKVDKTVERKCCVECPPCPAPPVAGPSVFLFPPKPKDTLMISRTPEVTCVVVDVSHEDPEVQFNWYVDGVEVHNAKTKPREEQFNSTFRVVSVLTVVHQDWLNGKEYKCKVSNKGLPAPIEKTISKTKGQPREPQVYTLPPSREEMTKNQVSLTCLVKGFYPSDIAVEWESNGQPENNYKTTPPMLDSDGSFFLYSKLTVDKSRWQQGNVFSCSVMHEALHNHYTQKSLSLSPG
light: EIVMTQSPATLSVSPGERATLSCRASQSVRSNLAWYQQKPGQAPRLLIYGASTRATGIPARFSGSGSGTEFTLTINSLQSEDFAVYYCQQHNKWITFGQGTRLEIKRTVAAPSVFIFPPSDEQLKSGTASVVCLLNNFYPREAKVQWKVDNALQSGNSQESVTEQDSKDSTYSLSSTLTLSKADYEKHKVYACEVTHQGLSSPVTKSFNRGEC
mean EC50, CD40 activity (HEK-Blue CD40L reporter cells) (human CD40 [5]): 9.3 ng/mL

B7: IFA108 (antibody, human IgG2, kappa)
heavy: QVQLVESGGGVVQPGKSLRLSCAASGFTFSSNGIHWVRQAPGKGLEWVAVIWSDGSNKFYADSVKGRFTISRDNSKNTLYLQMNSLRAEDTAVYYCARASGSGSYYNFFDYWGQGTLVTVSSASTKGPSVFPLAPCSRSTSESTAALGCLVKDYFPEPVTVSWNSGALTSGVHTFPAVLQSSGLYSLSSVVTVPSSNFGTQTYTCNVDHKPSNTKVDKTVERKCCVECPPCPAPPVAGPSVFLFPPKPKDTLMISRTPEVTCVVVDVSHEDPEVQFNWYVDGVEVHNAKTKPREEQFNSTFRVVSVLTVVHQDWLNGKEYKCKVSNKGLPAPIEKTISKTKGQPREPQVYTLPPSREEMTKNQVSLTCLVKGFYPSDIAVEWESNGQPENNYKTTPPMLDSDGSFFLYSKLTVDKSRWQQGNVFSCSVMHEALHNHYTQKSLSLSPGAEAAAKEAAAKASYNLLGFLQRSSNFQCQKLLWQLNGRLEYCLKDRMNFDIPEEIKQLQQFQKEDAALTIYEMLQNIFAIFRQDSSSTGWNETIVENLLANVYHQINHLKTVLEEKLEKEDFTRGKLMSSLHLKRYYGRILHYLKAKEYSHCAWTIVRVEILRNFYFINRLTGYLRN
light: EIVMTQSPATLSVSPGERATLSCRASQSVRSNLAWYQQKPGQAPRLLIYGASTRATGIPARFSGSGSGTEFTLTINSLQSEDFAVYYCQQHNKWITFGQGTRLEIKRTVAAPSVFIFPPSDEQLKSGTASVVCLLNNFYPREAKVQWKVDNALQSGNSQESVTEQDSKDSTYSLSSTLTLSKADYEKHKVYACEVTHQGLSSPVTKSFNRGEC
CD40 EC50 (HEK-Blue CD40L reporter cells) (human CD40 [6]): 37.3 ng/mL | IFNβ EC50 (HEK-Blue IFN-α/β reporter cells) [7]: 1.27 ng/mL

B8: IFA109 (antibody, human IgG2, kappa)
heavy: B7 heavy with C475S
light: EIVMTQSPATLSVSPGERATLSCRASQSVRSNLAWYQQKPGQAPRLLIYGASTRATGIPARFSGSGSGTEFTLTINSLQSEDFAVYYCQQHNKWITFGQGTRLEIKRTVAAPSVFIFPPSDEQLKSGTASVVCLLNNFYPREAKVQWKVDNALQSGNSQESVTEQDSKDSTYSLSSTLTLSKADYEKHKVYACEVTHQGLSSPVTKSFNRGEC
CD40 EC50 (HEK-Blue CD40L reporter cells) (human CD40 [6]): 30 ng/mL | IFNβ EC50 (HEK-Blue IFN-α/β reporter cells) [7]: 0.45 ng/mL
